Experimental findings from patent US20190153059A1 (ADEPTHERA, published 2019) are described below.

Like-named read-outs stand apart in the source and are kept apart here.

Holding throughout (assay): cell-based or functional assay
The target of experiment [1] is T1, type 1 angiotensin II receptor AGTR1 (UniProt P30556 1-359, limits assumed).
T1 sequence (looked up): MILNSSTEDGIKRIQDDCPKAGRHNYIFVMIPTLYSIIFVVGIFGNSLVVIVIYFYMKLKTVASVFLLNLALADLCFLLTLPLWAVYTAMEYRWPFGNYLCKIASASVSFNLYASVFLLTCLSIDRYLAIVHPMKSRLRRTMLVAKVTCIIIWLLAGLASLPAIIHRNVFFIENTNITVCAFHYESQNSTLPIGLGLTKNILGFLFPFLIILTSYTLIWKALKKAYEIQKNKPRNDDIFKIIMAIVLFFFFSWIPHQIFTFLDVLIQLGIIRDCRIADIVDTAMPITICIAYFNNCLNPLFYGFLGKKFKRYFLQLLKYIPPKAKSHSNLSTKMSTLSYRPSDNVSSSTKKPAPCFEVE

The next experiment addresses CLR/RAMP1 receptor (UniProt Q16602 23-461; O60894 27-148, limits assumed).
A further experiment concerns the target CLR/RAMP2 receptor (UniProt Q16602 23-461; O60895 43-175, limits assumed).
The target of experiment [2] is T1, type 1 angiotensin II receptor AGTR1. The source holds these as a separate data set.

Chain of CLR/RAMP2 receptor (Q16602 23-461 limits assumed, chain 1 of 2): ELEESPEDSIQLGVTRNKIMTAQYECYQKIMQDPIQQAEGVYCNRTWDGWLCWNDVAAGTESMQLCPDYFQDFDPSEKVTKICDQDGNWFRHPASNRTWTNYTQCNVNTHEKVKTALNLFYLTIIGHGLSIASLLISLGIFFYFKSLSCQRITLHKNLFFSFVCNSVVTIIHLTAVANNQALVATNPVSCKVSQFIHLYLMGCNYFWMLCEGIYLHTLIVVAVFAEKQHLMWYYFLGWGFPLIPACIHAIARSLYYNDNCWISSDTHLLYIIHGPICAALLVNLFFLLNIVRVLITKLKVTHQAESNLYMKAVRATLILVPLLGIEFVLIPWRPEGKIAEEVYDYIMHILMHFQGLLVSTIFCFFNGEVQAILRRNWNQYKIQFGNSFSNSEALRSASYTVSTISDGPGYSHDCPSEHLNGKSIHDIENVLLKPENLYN
Chain of CLR/RAMP2 receptor (O60895 43-175 limits assumed, chain 2 of 2): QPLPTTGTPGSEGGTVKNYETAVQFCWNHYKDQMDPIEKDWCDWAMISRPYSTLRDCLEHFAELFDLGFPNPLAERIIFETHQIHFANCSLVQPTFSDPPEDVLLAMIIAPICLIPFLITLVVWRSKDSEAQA
Chain of CLR/RAMP1 receptor (Q16602 23-461 limits assumed, chain 1 of 2): as the sequence (Q16602 23-461 limits assumed, chain 1 of 2) above
Chain of CLR/RAMP1 receptor (O60894 27-148 limits assumed, chain 2 of 2): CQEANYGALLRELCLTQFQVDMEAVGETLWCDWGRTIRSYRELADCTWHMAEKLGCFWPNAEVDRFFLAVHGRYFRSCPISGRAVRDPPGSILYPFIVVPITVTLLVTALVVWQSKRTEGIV

B1: AGTR1 antagonist/CLR/RAMP agonist MRL (SEQ ID NO: 234) (peptide)
peptide: RVYVHPAKGCRFGTCTVQKLAHQIYQFTDKDVAPRSKISPQGY
modifications: Sar at N-terminus (Sar-RVYVHPA); miniPEG before K(PAL); K(PAL); -NH2
Regarding B1, the “AGTR1 IC50 (calcium flux assay)” value in experiment [1] came to 19.9 nM. Further, in the experiment with CLR/RAMP1 receptor, the “CLR/RAMP1 EC50” value amounted to 0.3 nM and the “CLR/RAMP1 Max Activity” value was 132 % of positive controls. In the experiment with CLR/RAMP2 receptor, the “CLR/RAMP2 EC50” value turned out to be 1 nM and the “CLR/RAMP2 Max Activity” value is 86 % of positive controls. Besides, the “AGTR1 IC50 (calcium flux assay)” value in experiment [2] came to 20 nM.
